Laboratory results taken from patent US20250186541A1, “DLL3 TARGETING PEPTIDES AND CONSTRUCTS THEREOF” (MARIANA ONCOLOGY INC., priority 2023, published 2025).
Numbered stars: 1 amine (or outer) side, 2 acyl side, 3 side chain; on linkers, the order of the positions; unused ones are H or OH. Bridge positions count the residues as written; N and C are the ends. Square brackets hold non-standard residues; d marks the D form. Side chains are listed from the residue outwards. * marks the point of attachment. Ala(piperidin-4-yl) = O=C([C@H](CC1CCN([*:3])CC1)N[*:1])[*:2]; DOTA = O=C(O)CN1CCN(CC(=O)O)CCN(CC(=O)*)CCN(CC(=O)O)CC1; γGlu = O=C(O)[C@H](CCC(=O)[*:2])N[*:1]; 1Nal = N[C@@H](Cc1cccc2ccccc12)C(=O)O; tBuAla = CC(C)(C)C[C@H](N)C(=O)O; 3Pal = N[C@@H](Cc1cccnc1)C(=O)O; 4Pal = N[C@@H](Cc1ccncc1)C(=O)O; Cha = N[C@@H](CC1CCCCC1)C(=O)O; NMeL = CN[C@@H](CC(C)C)C(=O)O; Cba = N[C@@H](CC1CCC1)C(=O)O; Chg = N[C@H](C(=O)O)C1CCCCC1; dNle = CCCC[C@@H](N)C(=O)O; Nle = CCCC[C@H](N)C(=O)O; dNMeA = CN[C@H](C)C(=O)O; Ahx = NCCCCCC(=O)O

T1: Biotinylated human DLL3 (human, UniProt Q9NYJ7 27-492, biotinylated (site not stated))
T1 construct: also called Delta-like ligand 3; Delta Like Canonical Notch Ligand 3
T1 sequence (looked up): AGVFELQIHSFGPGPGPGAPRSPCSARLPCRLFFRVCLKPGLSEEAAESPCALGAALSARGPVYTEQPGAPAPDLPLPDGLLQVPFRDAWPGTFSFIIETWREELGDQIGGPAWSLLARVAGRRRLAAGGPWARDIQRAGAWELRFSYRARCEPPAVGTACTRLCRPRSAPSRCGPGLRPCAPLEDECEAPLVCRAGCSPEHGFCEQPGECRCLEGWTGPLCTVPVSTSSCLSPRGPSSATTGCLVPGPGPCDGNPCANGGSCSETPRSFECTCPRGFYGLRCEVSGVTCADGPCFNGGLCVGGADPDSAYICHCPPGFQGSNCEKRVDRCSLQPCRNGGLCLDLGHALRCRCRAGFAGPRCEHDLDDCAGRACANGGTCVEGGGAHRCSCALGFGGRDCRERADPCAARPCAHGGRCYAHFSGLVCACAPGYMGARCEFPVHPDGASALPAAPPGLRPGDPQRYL


target: T1, Biotinylated human DLL3; assay: SPR, biotin-hDLL3 on SA chip

| Binder | Kd [nM] |
| --- | --- |
| Ac-SDCWLK(DOTA)WNCPFD-NH2 (disulfide 3-9) [Cpd #87] | 33.3 |
| Ac-[Chg]SDC[1Nal]L[Ala(piperidin-4-yl)]WNCPFD[dK](DOTA)-NH2 (disulfide 4-10) [Cpd #111] | 1.24 |
| Ac-[Chg]SDC[1Nal]LQWNC[dNMeA]FD[dK](DOTA)-NH2 (disulfide 4-10) [Cpd #94] | 0.54 |
| Ac-[Chg]SDCWK(DOTA)QWNCPFD-NH2 (disulfide 4-10; SMILES CC(=O)N[C@H](C(=O)N[C@@H](CO)C(=O)N[C@@H](CC(=O)O)C(=O)N[C@H]1CSSC[C@@H](C(=O)N2CCC[C@H]2C(=O)N[C@@H](Cc2ccccc2)C(=O)N[C@@H](CC(=O)O)C(N)=O)NC(=O)[C@H](CC(N)=O)NC(=O)[C@H](Cc2c[nH]c3ccccc23)NC(=O)[C@H](CCC(N)=O)NC(=O)[C@H](CCCCNC(=O)CN2CCN(CC(=O)O)CCN(CC(=O)O)CCN(CC(=O)O)CC2)NC(=O)[C@H](Cc2c[nH]c3ccccc23)NC1=O)C1CCCCC1) [Cpd #98] | 93 |
| Ac-[Chg][dS]DC[1Nal]LQWNCPFD[dK](DOTA)-NH2 (disulfide 4-10) [Cpd #106] | 1.2 |
| Ac-MSDCW[tBuAla]QWNCPFD[dK](DOTA)-NH2 (disulfide 4-10) [Cpd #67] | 4.03 |
| Ac-[dE]SDCWLQWNCPFD[dK](DOTA)-NH2 (disulfide 4-10) [Cpd #82] | 17.1 |
| {hexanoic acid}-SDCWLQWNCPFD[dK](DOTA)-NH2 (disulfide 3-9) [Cpd #75] | 9.6 |
| Ac-SDCWLQWK(DOTA)CPFD-NH2 (disulfide 3-9; SMILES CC(=O)N[C@@H](CO)C(=O)N[C@@H](CC(=O)O)C(=O)N[C@H]1CSSC[C@@H](C(=O)N2CCC[C@H]2C(=O)N[C@@H](Cc2ccccc2)C(=O)N[C@@H](CC(=O)O)C(N)=O)NC(=O)[C@H](CCCCNC(=O)CN2CCN(CC(=O)O)CCN(CC(=O)O)CCN(CC(=O)O)CC2)NC(=O)[C@H](Cc2c[nH]c3ccccc23)NC(=O)[C@H](CCC(N)=O)NC(=O)[C@H](CC(C)C)NC(=O)[C@H](Cc2c[nH]c3ccccc23)NC1=O) [Cpd #90] | > 300 |
| Ac-[Chg]SDC[1Nal]L[3Pal]WNCPFD[dK](DOTA)-NH2 (disulfide 4-10; SMILES CC(=O)N[C@H](C(=O)N[C@@H](CO)C(=O)N[C@@H](CC(=O)O)C(=O)N[C@H]1CSSC[C@@H](C(=O)N2CCC[C@H]2C(=O)N[C@@H](Cc2ccccc2)C(=O)N[C@@H](CC(=O)O)C(=O)N[C@H](CCCCNC(=O)CN2CCN(CC(=O)O)CCN(CC(=O)O)CCN(CC(=O)O)CC2)C(N)=O)NC(=O)[C@H](CC(N)=O)NC(=O)[C@H](Cc2c[nH]c3ccccc23)NC(=O)[C@H](Cc2cccnc2)NC(=O)[C@H](CC(C)C)NC(=O)[C@H](Cc2cccc3ccccc23)NC1=O)C1CCCCC1) [Cpd #112] | 2.56 |
| Ac-SK(DOTA)CWLQWNCPFD-NH2 (disulfide 3-9; SMILES CC(=O)N[C@@H](CO)C(=O)N[C@@H](CCCCNC(=O)CN1CCN(CC(=O)O)CCN(CC(=O)O)CCN(CC(=O)O)CC1)C(=O)N[C@H]1CSSC[C@@H](C(=O)N2CCC[C@H]2C(=O)N[C@@H](Cc2ccccc2)C(=O)N[C@@H](CC(=O)O)C(N)=O)NC(=O)[C@H](CC(N)=O)NC(=O)[C@H](Cc2c[nH]c3ccccc23)NC(=O)[C@H](CCC(N)=O)NC(=O)[C@H](CC(C)C)NC(=O)[C@H](Cc2c[nH]c3ccccc23)NC1=O) [Cpd #91] | 95.7 |
| Ac-[Chg]SDCWLQWNCPFD[dK](DOTA)-NH2 (disulfide 4-10) [Cpd #77] | 7.4 |
| Ac-MSDCW[Chg]QWNCPFD[dK](DOTA)-NH2 (disulfide 4-10) [Cpd #71] | 4.52 |
| Ac-SDCWLQWNCPFD[dK]([γGlu-DOTA])-NH2 (disulfide 3-9) [Cpd #88] | 9.7 |

More lines, in order of falling Kd, values ahead:

| Kd [nM] | Binder |
| --- | --- |
| 145 | Ac-[Chg]SK(DOTA)CWLQWNCPFD-NH2 (disulfide 4-10; SMILES CC(=O)N[C@H](C(=O)N[C@@H](CO)C(=O)N[C@@H](CCCCNC(=O)CN1CCN(CC(=O)O)CCN(CC(=O)O)CCN(CC(=O)O)CC1)C(=O)N[C@H]1CSSC[C@@H](C(=O)N2CCC[C@H]2C(=O)N[C@@H](Cc2ccccc2)C(=O)N[C@@H](CC(=O)O)C(N)=O)NC(=O)[C@H](CC(N)=O)NC(=O)[C@H](Cc2c[nH]c3ccccc23)NC(=O)[C@H](CCC(N)=O)NC(=O)[C@H](CC(C)C)NC(=O)[C@H](Cc2c[nH]c3ccccc23)NC1=O)C1CCCCC1) [Cpd #96] |
| 16.4 | Ac-MSDCW[Cha]QWNCPFD[dK](DOTA)-NH2 (disulfide 4-10) [Cpd #69] |
| 15.8 | Ac-MSDCW[Nle]QWNCPFD[dK](DOTA)-NH2 (disulfide 4-10) [Cpd #68] |
| 6.95 | Ac-MSDCW[Cba]QWNCPFD[dK](DOTA)-NH2 (disulfide 4-10) [Cpd #70] |
| 5.56 | {DOTA-Ahx}-SDCW[NMeL]QWNCPFD-NH2 (disulfide 3-9) [Cpd #92] |
| 2.89 | Ac-[dA][dS]DC[1Nal]LQWNCPFD[dK](DOTA)-NH2 (disulfide 4-10) [Cpd #108] |
| 1.9 | Ac-[dNle][dS]DC[1Nal]LQWNCPFD[dK](DOTA)-NH2 (disulfide 4-10) [Cpd #107] |
| 0.89 | Ac-[Chg]SDC[1Nal]L[4Pal]WNCPFD[dK](DOTA)-NH2 (disulfide 4-10; SMILES CC(=O)N[C@H](C(=O)N[C@@H](CO)C(=O)N[C@@H](CC(=O)O)C(=O)N[C@H]1CSSC[C@@H](C(=O)N2CCC[C@H]2C(=O)N[C@@H](Cc2ccccc2)C(=O)N[C@@H](CC(=O)O)C(=O)N[C@H](CCCCNC(=O)CN2CCN(CC(=O)O)CCN(CC(=O)O)CCN(CC(=O)O)CC2)C(N)=O)NC(=O)[C@H](CC(N)=O)NC(=O)[C@H](Cc2c[nH]c3ccccc23)NC(=O)[C@H](Cc2ccncc2)NC(=O)[C@H](CC(C)C)NC(=O)[C@H](Cc2cccc3ccccc23)NC1=O)C1CCCCC1) [Cpd #113] |
| 0.59 | Ac-[Chg]SDC[1Nal]LQWNCPFD[dK](DOTA)-NH2 (disulfide 4-10) [Cpd #105] |
